# Test results: US12398179
# Non-standard residues stand in square brackets, D forms with d. No end group written: not given here. *: point of attachment. Biotin = O=C1N[C@H]2[C@H](CS[C@H]2CCCCC(=O)*)N1; βAla = NCCC(=O)O
# How the values were obtained:
# [1] = biological target: EphA2 extracellular domain fused to the Fc portion of an antibody (EphA2 Fc); experiment: competition ELISA: inhibition of ephrin-A5 AP binding to immobilized EphA2 Fc; average ± SE (number of experiments)
# [2] = biological target: EphA2 extracellular domain fused to the Fc portion of an antibody (EphA2 Fc); experiment: ELISA, inhibition of ephrin-A5 AP binding to immobilized EphA2 Fc; representative experiment; concentrations in nM
# [3] = biological target: EphA2 extracellular domain fused to the Fc portion of an antibody (EphA2 Fc); experiment: competition ELISA: inhibition of ephrin-A5 AP binding to EphA2 Fc
# [4] = biological target: EphA2 extracellular domain fused to the Fc portion of an antibody (EphA2 Fc); experiment: ELISA, inhibition of ephrin-A5 AP binding to immobilized EphA2 Fc; representative experiment
# EphA2 extracellular domain fused to the Fc portion of an antibody (EphA2 Fc), sequence (P29317 whole entry, the tested form may be a part): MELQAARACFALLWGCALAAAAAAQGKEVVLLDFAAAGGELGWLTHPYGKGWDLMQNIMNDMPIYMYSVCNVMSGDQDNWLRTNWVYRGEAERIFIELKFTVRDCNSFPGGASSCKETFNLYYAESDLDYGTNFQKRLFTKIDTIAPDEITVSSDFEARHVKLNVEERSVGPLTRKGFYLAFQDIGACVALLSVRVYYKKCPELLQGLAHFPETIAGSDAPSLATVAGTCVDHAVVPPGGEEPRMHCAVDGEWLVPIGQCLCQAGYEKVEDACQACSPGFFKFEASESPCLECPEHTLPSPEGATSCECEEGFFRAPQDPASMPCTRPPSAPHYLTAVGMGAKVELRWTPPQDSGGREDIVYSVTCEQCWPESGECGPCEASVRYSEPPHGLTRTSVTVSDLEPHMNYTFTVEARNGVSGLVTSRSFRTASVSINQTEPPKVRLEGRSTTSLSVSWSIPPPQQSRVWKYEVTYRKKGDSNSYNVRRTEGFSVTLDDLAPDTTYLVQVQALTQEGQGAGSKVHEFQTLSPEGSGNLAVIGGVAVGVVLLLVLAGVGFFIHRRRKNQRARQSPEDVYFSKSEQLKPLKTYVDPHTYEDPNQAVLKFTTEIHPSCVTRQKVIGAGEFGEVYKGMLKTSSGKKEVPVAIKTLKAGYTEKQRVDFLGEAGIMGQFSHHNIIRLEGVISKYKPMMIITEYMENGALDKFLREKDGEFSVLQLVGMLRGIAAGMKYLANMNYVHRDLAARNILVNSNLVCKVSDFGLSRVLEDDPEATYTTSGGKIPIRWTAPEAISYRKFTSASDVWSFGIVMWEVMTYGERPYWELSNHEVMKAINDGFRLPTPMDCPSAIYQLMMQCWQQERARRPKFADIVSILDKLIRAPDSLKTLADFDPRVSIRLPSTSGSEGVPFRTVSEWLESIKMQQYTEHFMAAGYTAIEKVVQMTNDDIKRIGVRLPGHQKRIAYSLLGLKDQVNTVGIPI
IC50 [1],Binder,also measured
400 nM,[βAla]WLAYPDSVPYGSK(Biotin) [βA-WLA-YGSK-bio],
730 nM,[βAla]WLAYPDSVPYK(Biotin) [βA-WLA-YK-bio],
380 nM,[βAla]WLAYPDSVPYSK [βA-WLA-YSK],
390 nM,[βAla]WLAYPDSVPYR [βA-WLA-YR],IC50 [2]: 360 nM
62 nM,[βAla]WLAYPDSVPYSPK(Biotin) [βA-WLA-YSPK-bio],
840 nM,[βAla]WLAYPDSVPM-NH2 [βA-WLAam],fold increase in potency against WLAam [3]: 2 fold; IC50 [4]: 680 nM
330 nM,[βAla]WLAYPDSVPYGSGK(Biotin) [βA-WLA-YGSGK-bio],
1500 nM,WLAYPDSVPM-NH2 [WLAam],fold improvement in potency against YSA1-10am [3]: 2 fold; IC50 [2]: 1400 nM
